The results in this text go back to patent US20160046706A1 (MEDICAL AND BIOLOGICAL LABORATORIES, published 2016).

Experiment [1] deals with T1, HB-EGF (heparin-binding EGF-like growth factor; R&D Systems 259-HE-050/CF) (UniProt Q99075 63-148).
T1 construct: Bought protein
Description: ELISA, factor on the plate at 0.5 µg/mL (FIG. 8). How it is done: (§1) After the solution was removed, 1% BSA (manufactured by Nacalai Tesque, Inc.: 01863-35)—5% Sucrose (manufactured by WAKO PURE CHEMICAL […], LTD.)—PBS was added in an amount of 150 μL/well, and left to stand at room temperature for 2 hours to block the remaining active groups. After the resultant was left to stand, the solution was removed, and the hybridoma culture supernatant was dispensed as a primary antibody in an amount of 50 μL/well and left to stand for 1 hour. After the plate was washed with 0.05% Tween 20-PBS, an HRP-labeled anti-mouse IgG antibody (manufactured by MBL Co., Ltd.: 330) having been diluted 10000 times was added as a secondary antibody in an amount of 50 μL/well and left to stand at room temperature for 1 hour. After the plate was washed with 0.05% Tween 20-PBS, a color developing solution (5 mM sodium citrate, 0.8 mM 3.3′.5.5′-tetramethylbenzidine-2HCl, 10% N,N-dimethylformamide, 0.625% polyethylene glycol 4000, 5 mM citric acid monohydrate, 5 mM H2O2) was added thereto in an amount of 50 μL/well and left to stand at room temperature for 20 minutes to develop a color. The color development was terminated by adding 1 M phosphoric acid in an amount of 50 μL/well. Then, the absorbance at 450 nm was measured using a plate reader (manufactured by Thermo Fisher Scientific Inc.).
(§2) As described above, any homology with the NRG1 protein is low in the EGF domain. Nonetheless, 8a4, 10bM3, and 10b2M3 capable of recognizing the vicinity of the EGF domain were analyzed for the reactivity with the other factors of the EGF family by the same ELISA as above. To be more specific, each of EGF (manufactured by R&D Systems, Inc.: 236-EG-200), HB-EGF (manufactured by R&D Systems, Inc.: 259-HE-050/CF), TGF-alpha (manufactured by R&D Systems, Inc.: 239-A-100), AREG (manufactured by R&D Systems, Inc.: 262-AR-100/CF), NRG1-α (manufactured by R&D Systems, Inc.: 296-HR-050/CF), or NRG1-b (manufactured by R&D Systems, Inc.: 296-HB-050/CF) was dispensed in a 96-well ELISA plate in an amount of 0.5 μg/mL, that is, 50 μL/well, and immobilized thereto, for detection of the reaction with each antibody in amounts of 10 μg/mL and 1 μg/mL.

Experiment [2] concerns the target T2, TGF-alpha (transforming growth factor α; R&D Systems 239-A-100) (UniProt P01135 40-89).
T2 construct: Bought protein; also called TGFα; TGF-α
Description: ELISA, factor on the plate at 0.5 µg/mL (FIG. 8). How it is done: as §1, §2

For experiment [3], the target named is T3, EGF (R&D Systems 236-EG-200) (UniProt P01133 971-1023).
T3 construct: Bought protein
Kind of experiment: ELISA, factor on the plate at 0.5 µg/mL (FIG. 8). How it is done:
as §1, §2
In general terms: ELISA stands for enzyme-linked immunosorbent assay.

Experiment [4] concerns the target T4, AREG (amphiregulin; R&D Systems 262-AR-100/CF) (UniProt P15514 101-198).
T4 construct: Bought protein
T4 sequence (looked up): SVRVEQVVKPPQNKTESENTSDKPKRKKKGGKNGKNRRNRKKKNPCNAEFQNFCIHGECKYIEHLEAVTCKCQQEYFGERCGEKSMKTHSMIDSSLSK
Description: ELISA, factor on the plate at 0.5 µg/mL (FIG. 8). How it is done:
as §1, §2

Experiment [5] has as its target T5, human NRG1-α protein (full length, HA tag at the N-terminus, on NRG1-a/st293T cells) (human, UniProt Q02297 20-640).
T5 construct: also called NRG1 isoform 2; HA-NRG1-a/st293T; not shown: HA tag added to the N-terminus
T5 sequence: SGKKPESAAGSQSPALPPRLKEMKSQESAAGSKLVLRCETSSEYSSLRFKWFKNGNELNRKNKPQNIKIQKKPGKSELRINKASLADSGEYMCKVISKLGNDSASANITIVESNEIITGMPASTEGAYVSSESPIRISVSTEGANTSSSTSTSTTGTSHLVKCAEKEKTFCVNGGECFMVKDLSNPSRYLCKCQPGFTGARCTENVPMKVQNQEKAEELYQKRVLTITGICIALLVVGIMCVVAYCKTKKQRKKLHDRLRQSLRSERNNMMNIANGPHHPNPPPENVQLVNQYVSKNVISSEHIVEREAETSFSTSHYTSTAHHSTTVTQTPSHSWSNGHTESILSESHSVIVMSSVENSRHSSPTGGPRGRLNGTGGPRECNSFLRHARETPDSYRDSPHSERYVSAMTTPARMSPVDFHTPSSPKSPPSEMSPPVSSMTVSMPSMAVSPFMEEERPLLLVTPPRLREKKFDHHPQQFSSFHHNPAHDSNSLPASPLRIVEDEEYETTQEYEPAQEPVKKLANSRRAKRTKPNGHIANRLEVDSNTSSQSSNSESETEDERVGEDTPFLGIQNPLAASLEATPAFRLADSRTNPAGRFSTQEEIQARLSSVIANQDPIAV
Kind of experiment: ELISA on partial-length proteins and flow cytometry on NRG1-a/st293T cells (FIGS. 5 to 7).

The target of experiment [6] is T6, agPa (synthetic peptide containing the cleavage region of NRG1-a, bound to KLH); positions 221 to 244 of the … (human, bound to KLH).
T6 peptide: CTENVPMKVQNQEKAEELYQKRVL
Description: ELISA, partial-length NRG1 protein on the plate (FIG. 4). How it is done: Hybridomas producing anti-NRG1 antibodies were selected by the enzyme-linked immunosorbent assay (ELISA). The assay used the recombinant human NRG1 proteins as immunogens, which had been dispensed in a 96-well ELISA plate (manufactured by nunc A/S) in an amount of 0.5 μg/mL, that is, 50 μL/well, and left to stand at room temperature for 2 hours or 4° C. overnight for adsorption. After the solution was removed, 1% BSA (manufactured by Nacalai Tesque, Inc.: 01863-35)—5% Sucrose (manufactured by WAKO PURE CHEMICAL […], LTD.)—PBS was added in an amount of 150 μL/well, and left to stand at room temperature for 2 hours to block the remaining active groups. After the resultant was left to stand, the solution was removed, and the hybridoma culture supernatant was dispensed as a primary antibody in an amount of 50 μL/well and left to stand for 1 hour. […] Then, the absorbance at 450 nm was measured using a plate reader (manufactured by Thermo Fisher Scientific Inc.).
The sequences recognized by 8a2, 8a4, 10bM3, and 10b2M3 were analyzed by evaluating the reactivity with the recombinant NRG1 proteins. To be more specific, the analysis was performed using multiple partial-length NRG1 proteins, and the reactivity of each antibody with these was detected by the same enzyme-linked immunosorbent assay (ELISA) as above. […] The vertical axis represents the absorbance.

Experiment [7] deals with T7, human NRG1-β1 protein (full length, HA tag at the N-terminus, on NRG1-b/st293T cells) (human, UniProt Q02297 20-640).
T7 construct: also called NRG1 isoform 1; HA-NRG1-b/st293T; not shown: HA tag added to the N-terminus
T7 sequence: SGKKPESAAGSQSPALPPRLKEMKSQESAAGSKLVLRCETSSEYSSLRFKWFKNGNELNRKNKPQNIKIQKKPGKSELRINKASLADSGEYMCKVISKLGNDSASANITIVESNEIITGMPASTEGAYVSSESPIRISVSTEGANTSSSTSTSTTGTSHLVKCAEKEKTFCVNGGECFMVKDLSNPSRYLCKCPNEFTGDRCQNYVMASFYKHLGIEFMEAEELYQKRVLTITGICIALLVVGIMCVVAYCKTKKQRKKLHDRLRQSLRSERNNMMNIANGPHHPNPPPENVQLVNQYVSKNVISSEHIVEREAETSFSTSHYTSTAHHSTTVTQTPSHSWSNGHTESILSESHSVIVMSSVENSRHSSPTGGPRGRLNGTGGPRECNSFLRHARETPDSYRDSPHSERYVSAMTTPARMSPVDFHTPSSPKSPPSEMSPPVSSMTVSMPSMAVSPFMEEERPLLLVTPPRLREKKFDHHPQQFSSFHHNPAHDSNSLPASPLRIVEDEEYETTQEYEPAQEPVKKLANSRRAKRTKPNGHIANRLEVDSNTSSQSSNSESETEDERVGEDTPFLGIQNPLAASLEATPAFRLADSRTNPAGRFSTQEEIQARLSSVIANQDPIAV
Description: flow cytometry on NRG1-b/st293T cells.

T2 sequence (P01135 40-89 limits assumed): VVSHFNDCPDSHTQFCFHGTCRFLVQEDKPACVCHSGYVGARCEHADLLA
T1 sequence (Q99075 63-148 limits assumed): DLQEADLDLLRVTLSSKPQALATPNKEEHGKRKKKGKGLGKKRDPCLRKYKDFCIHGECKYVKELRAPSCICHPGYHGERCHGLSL
T3 sequence (P01133 971-1023 limits assumed): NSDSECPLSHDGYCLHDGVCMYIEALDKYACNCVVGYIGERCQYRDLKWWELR

B1: 10bM3 (antibody, mouse IgG1, V domains shown)
VH: EVQLVESGGGLVKPGGSRKLSCAASGFTFSDYGIHWVRQAPEKGLEWLAYISSGSSTIYYADTVKGRFTISRDNAKNTLFLQMTSLRSEDTAMYYCARGSNYVGYYAMDYWGQGTSVTVSS
VL: DIVMTQSPSSLAVTAGEKVTMRCKSSQSLLWSVNQKNYLSWYQQKEGQSPKLLIYGASIRESWVPDRFTGSGSGTDFTLTISNVHAEDLAVYYCQHNHGRFLPLTFGGGTKL
notes: Mouse monoclonal antibody; Variable genes were amplified with mouse IgG1 CH1 and kappa constant region primers; The printed VL ends at ...GTKL
For the molecule B1, the binding result in experiment [1] was “no binding (tested: 10 µg/mL and 1 µg/mL)”; in experiment [2] it was “no binding (tested: 10 µg/mL and 1 µg/mL)”; in experiment [3], “no binding (tested: 10 µg/mL and 1 µg/mL)”; in experiment [4] it was “no binding (tested: 10 µg/mL and 1 µg/mL)”; in experiment [5] it was “no binding”.

B2: 8a4 (antibody, mouse IgG1, V domains shown)
VH: EVQLQQSGADLVRPGASVKLSCTASGFNIKDDYIHWVKQRPEQGLEWIGWIDPENGDTEYASQFQGKATITADTSSNTAYLQLRSLTSEDTAVYYCTTSDHRAWFAFWGLGTLVTVSS
VL: DVLMTQTPLSLPVSLGDQASISCRSSQTIVHRNGNTYLEWYLQKPGQSPKLLIYRVSNRFSGVPDRFSGSGSGTDFTLKISRVEAEDLGVYYCFQGSHVPLTFGAGTKL
notes: Mouse monoclonal antibody; Variable genes were amplified with mouse IgG1 CH1 and kappa constant region primers; The printed VL ends at ...GTKL; also called 8a4 antibody
As to B2, the binding result was “no binding (tested: 10 µg/mL and 1 µg/mL)” in experiment [1]; “no binding (tested: 10 µg/mL and 1 µg/mL)” in experiment [2]; “no binding (tested: 10 µg/mL and 1 µg/mL)” in experiment [3]; “no binding (tested: 10 µg/mL and 1 µg/mL)” in experiment [4]; “binds” in experiment [6]; “no binding (tested: 5 µg/mL)” in experiment [7].

B3: 10b2M3 (antibody, mouse IgG1, V domains shown)
VH: QVQLQQSGPELVKPGASVKISCKASGYAFSSSWMNWVKQRPGKGLEWIGRIYPGDGDIYYNGKFKGKATLTADKSSSTAYMQLNSLTSEDSAVYFCARTFNYPFFAYWGQGTLVTVSS
VL: DILMTQSPSSLTVSTGEKVTMSCKSSQSLLASANQNNYLAWHQQKPGRSPKMLIIWASTRVSGVPDRFIGSGSGTDFTLTINSVQAEDLAVYYCQQSYSAPTTFGAGTKL
notes: Mouse monoclonal antibody; Variable genes were amplified with mouse IgG1 CH1 and kappa constant region primers; The printed VL ends at ...GTKL; also called 10b2M3 antibody
As to B3, the binding result in experiment [1] is “no binding (tested: 10 µg/mL and 1 µg/mL)”; in experiment [2] it was “no binding (tested: 10 µg/mL and 1 µg/mL)”; in experiment [3], “no binding (tested: 10 µg/mL and 1 µg/mL)”; in experiment [4] it was “no binding (tested: 10 µg/mL and 1 µg/mL)”; in experiment [5], “no binding”.
